The target in experiment [1] is T1, IL-6R-Fc 항원 (human, UniProt P08887 20-365, limits assumed).
T1 construct: domain: IL-6R full domain; Made in-house as IL-6R-Fc; also called IL-6R full; IL-6R full domain인 단백질; not shown: Fc part (vector pYK 604)
T1 sequence (looked up): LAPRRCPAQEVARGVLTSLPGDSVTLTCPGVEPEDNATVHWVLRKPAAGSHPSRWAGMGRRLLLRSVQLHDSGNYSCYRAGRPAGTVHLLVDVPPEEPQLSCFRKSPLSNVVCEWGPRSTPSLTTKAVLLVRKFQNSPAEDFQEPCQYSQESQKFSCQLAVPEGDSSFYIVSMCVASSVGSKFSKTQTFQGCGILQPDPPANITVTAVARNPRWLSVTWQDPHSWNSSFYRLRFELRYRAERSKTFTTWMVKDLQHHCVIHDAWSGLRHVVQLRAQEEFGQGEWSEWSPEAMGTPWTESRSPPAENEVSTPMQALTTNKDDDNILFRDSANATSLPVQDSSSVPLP
In words: assay on IL-6R not described for the bispecific protein.

Experiment [2] has as its target T1, IL-6R-Fc 항원. In words: ELISA titration on coated IL-6R; fit R2 0.93.
Experiment [3] has as its target T1, IL-6R-Fc 항원. Put plainly: ELISA titration on coated IL-6R (repeats the 3rd table).
For experiment [4], the target named is T1, IL-6R-Fc 항원. In words: ELISA; IL-6R coated 100 ng/well; IgG at 25 nM; anti-Fab-HRP.
The target of experiment [5] is T1, IL-6R-Fc 항원. In words: ELISA; IL-6R coated 100 ng/well; IgG at 50 nM; anti-Fab-HRP.
For experiment [6], the target named is T1, IL-6R-Fc 항원. Put plainly: ELISA; IL-6R coated 100 ng/well; IgG at 12.5 nM; anti-Fab-HRP.
Experiment [7] concerns the target T1, IL-6R-Fc 항원. Put plainly: ELISA; IL-6R coated 100 ng/well; IgG at 6.25 nM; anti-Fab-HRP.
For experiment [8], the target named is T1, IL-6R-Fc 항원. In words: ELISA; IL-6R coated 100 ng/well; IgG at 3.125 nM; anti-Fab-HRP.
In experiment [9] the target is T1, IL-6R-Fc 항원. In words: ELISA; IL-6R coated 100 ng/well; IgG at 1.5625 nM; anti-Fab-HRP.
In experiment [10] the target is T1, IL-6R-Fc 항원. Put plainly: ELISA; IL-6R coated 100 ng/well; IgG at 0.02441 nM; anti-Fab-HRP.
In experiment [11] the target is T1, IL-6R-Fc 항원. Put plainly: ELISA; IL-6R coated 100 ng/well; IgG at 0.04883 nM; anti-Fab-HRP.
The target of experiment [12] is T1, IL-6R-Fc 항원. Put plainly: ELISA; IL-6R coated 100 ng/well; IgG at 0.09766 nM; anti-Fab-HRP.
The target in experiment [13] is T1, IL-6R-Fc 항원. In words: ELISA; IL-6R coated 100 ng/well; IgG at 0.19531 nM; anti-Fab-HRP.
The target of experiment [14] is T1, IL-6R-Fc 항원. Put plainly: ELISA; IL-6R coated 100 ng/well; IgG at 0.39063 nM; anti-Fab-HRP.
The target of experiment [15] is T1, IL-6R-Fc 항원. In words: ELISA; IL-6R coated 100 ng/well; IgG at 0.78125 nM; anti-Fab-HRP.
In a further experiment the target is T2, a-Myc.
T2 construct: Coated at 100 ng/well in the phage ELISAs
Put plainly: mono phage ELISA; a-Myc coated 100 ng/well; anti-M13-HRP.

Experiment [16] has as its target T1, IL-6R-Fc 항원. Put plainly: ELISA titration on coated IL-6R; fit R2 0.8.
Experiment [17] addresses T1, IL-6R-Fc 항원. Put plainly: ELISA titration on coated IL-6R; fit R2 0.75.
The target in the next experiment is T3, TNF-α (UniProt P01375 77-233).
T3 construct: Coated at 100 ng/well; also called TNF-a; TNF-α 리간드
Put plainly: ELISA; TNF-α coated 100 ng/well; protein from 100 nM in 1/4 steps; anti-Human Fc-HRP.

The target of experiment [18] is T1, IL-6R-Fc 항원. Put plainly: ELISA titration on coated IL-6R; fit R2 0.98.

T3 sequence (P01375 77-233 limits assumed): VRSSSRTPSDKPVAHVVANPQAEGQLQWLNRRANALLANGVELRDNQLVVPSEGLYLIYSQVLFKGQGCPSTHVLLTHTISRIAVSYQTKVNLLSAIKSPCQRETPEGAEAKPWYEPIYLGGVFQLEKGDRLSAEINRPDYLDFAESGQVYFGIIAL

B1: A7/TNFR2 (bispecific antibody)
heavy: not shown
light: DVHSQLVLTQPPSVSGAPGQRVTISCTGTNSNIGAGYDVHWYQQVPGTTPKLLIYGNTNRPSGVPDRFSGSKSGTSASLAITGLQAEDGGDYYCQSFDSSLTGSVFGTGTKVTVL
notes: also called Anti-IL-6R/TNFR2; Dual
Regarding B1, binding in the experiment with IL-6R-Fc 항원 [1] was characterised by a dissociation constant (Kd) of 2.3 nM.

B2: 항 IL-6R 단클론 항체 A7 (antibody, V domains shown)
VH: QMQLVESGGGLVQPGTSLRLSCAASGFKFEDYAMHWVRQAPGKGLEWVSGVSWNSGTIAYVDSVKGRFTISRDNAKNSLYLQMNSLRAEDTAVYYCARDFTYFYESSGYYAFDLWGQGTMVTVSS
VL: SQLVLTQPPSVSGAPGQRVTISCTGTNSNIGAGYDVHWYQQVPGTTPKLLIYGNTNRPSGVPDRFSGSKSGTSASLAITGLQAEDGGDYYCQSFDSSLTGSVFGTGTKVTVL
Turning to B2, the Kd with IL-6R-Fc 항원 [2] and with IL-6R-Fc 항원 [3] was 2.3 nM throughout. In addition, the “OD 490 nm” value in the experiment with IL-6R-Fc 항원 [4] was determined as 2.84 OD490; with IL-6R-Fc 항원 [5] it was 3.1 OD490; with IL-6R-Fc 항원 [6], 2.58 OD490; with IL-6R-Fc 항원 [7] it was 2.13 OD490; in the experiment with IL-6R-Fc 항원 [8], 1.64 OD490; in the experiment with IL-6R-Fc 항원 [9] it was 1.17 OD490. In addition, the “OD 490 nm” value was 0.514 OD490 with IL-6R-Fc 항원 [10]; 0.498 OD490 with IL-6R-Fc 항원 [11]; 0.497 OD490 with IL-6R-Fc 항원 [12]; 0.546 OD490 with IL-6R-Fc 항원 [13]; 0.618 OD490 in the experiment with IL-6R-Fc 항원 [14]; 0.782 OD490 with IL-6R-Fc 항원 [15].

B3: 모노 파아지 클론 A7 (scFv, V domains shown)
VH: QMQLVESGGGLVQPGTSLRLSCAASGFKFEDYAMHWVRQAPGKGLEWVSGVSWNSGTIAYVDSVKGRFTISRDNAKNSLYLQMNSLRAEDTAVYYCARDFTYFYESSGYYAFDLWGQGTMVTVSS
VL: SQLVLTQPPSVSGAPGQRVTISCTGTNSNIGAGYDVHWYQQVPGTTPKLLIYGNTNRPSGVPDRFSGSKSGTSASLAITGLQAEDGGDYYCQSFDSSLTGSVFGTGTKVTVL
notes: also called A07
As to B3, the “OD 490 nm (a-myc)” value with a-Myc was 0.0797 OD490.

B4: 항 IL-6R 단클론 항체 D2 (antibody, V domains shown)
VH: QVQLVESGAEVKKPGSSVKVSCKGSGDTFPNYAINWVRQAPGQGPEWMGRIIPMLGTSDYAEKFQGRVTITADKSTNTAYMGLNSLRSEDTAVYYCVKGPRYYGTDSYYLEKWGQGTMVTVSS
VL: SQLVLTQPPSVSGAPGQTVTISCTGPTIGAGYDVHWYQQLPGAAPKLLIYGNLNRPSGVPDRFSGSKSGTSASLAITDLQAEDEADYYCHTYDSSLSGSWVFGGGTKLTVL
For the molecule B4, the Kd with IL-6R-Fc 항원 [16] and with IL-6R-Fc 항원 [3] was 7.5 nM throughout. For the same molecule, the “OD 490 nm” value came out at 1.94 OD490 with IL-6R-Fc 항원 [4]; 2.38 OD490 in the experiment with IL-6R-Fc 항원 [5]; 1.47 OD490 with IL-6R-Fc 항원 [6]; 0.981 OD490 in the experiment with IL-6R-Fc 항원 [7]; 0.719 OD490 in the experiment with IL-6R-Fc 항원 [8]; 0.584 OD490 in the experiment with IL-6R-Fc 항원 [9]. Further, the “OD 490 nm” value with IL-6R-Fc 항원 [10] stood at 0.449 OD490; in the experiment with IL-6R-Fc 항원 [11] it was 0.451 OD490; with IL-6R-Fc 항원 [12] it was 0.45 OD490; with IL-6R-Fc 항원 [13] it was 0.469 OD490; in the experiment with IL-6R-Fc 항원 [14], 0.473 OD490; in the experiment with IL-6R-Fc 항원 [15], 0.479 OD490.

B5: 모노 파아지 클론 D2 (scFv, V domains shown)
VH: QVQLVESGAEVKKPGSSVKVSCKGSGDTFPNYAINWVRQAPGQGPEWMGRIIPMLGTSDYAEKFQGRVTITADKSTNTAYMGLNSLRSEDTAVYYCVKGPRYYGTDSYYLEKWGQGTMVTVSS
VL: SQLVLTQPPSVSGAPGQTVTISCTGPTIGAGYDVHWYQQLPGAAPKLLIYGNLNRPSGVPDRFSGSKSGTSASLAITDLQAEDEADYYCHTYDSSLSGSWVFGGGTKLTVL
notes: also called D02
Take B5: in the experiment with a-Myc, the “OD 490 nm (a-myc)” value is 0.303 OD490.

B6: 모노 파아지 클론 B10 (scFv, V domains shown)
VH: QVQLVESGGGLVQPGGSLRLSCAASGFIFDDYAMFWVRQVPGKGLEWVAGINWNGNGIGYGDSVRGRFIISRDNARNSLDLQMNSLRAEDTAVYYCARPSLYGGNSEFDLWGQGTLVTVSS
VL: SQLVLTQPPSVSGAPGQTVTISCTGPTIGAGYDVHWYQQLPGAAPKLLIYGNLNRPSGVPDRFSGSKSGTSASLAITDLQAEDEADYYCHTYDSSLSGSWVFGGGTKLTVL
notes: also called 6B10
Consider B6, for which the “OD 490 nm (a-myc)” value with a-Myc came out at 0.113 OD490.

B7: 항 IL-6R 단클론 항체 B10 (antibody, V domains shown)
VH: QVQLVESGGGLVQPGGSLRLSCAASGFIFDDYAMFWVRQVPGKGLEWVAGINWNGNGIGYGDSVRGRFIISRDNARNSLDLQMNSLRAEDTAVYYCARPSLYGGNSEFDLWGQGTLVTVSS
VL: SQLVLTQPPSVSGAPGQTVTISCTGPTIGAGYDVHWYQQLPGAAPKLLIYGNLNRPSGVPDRFSGSKSGTSASLAITDLQAEDEADYYCHTYDSSLSGSWVFGGGTKLTVL
Turning to B7, the Kd in the experiment with IL-6R-Fc 항원 [17] and in the experiment with IL-6R-Fc 항원 [3] was 4.3 nM in each case. Besides, the “OD 490 nm” value with IL-6R-Fc 항원 [4] stood at 1.78 OD490; with IL-6R-Fc 항원 [5] it was 2.09 OD490; with IL-6R-Fc 항원 [6], 1.39 OD490; with IL-6R-Fc 항원 [7], 1.04 OD490; in the experiment with IL-6R-Fc 항원 [8], 0.761 OD490; with IL-6R-Fc 항원 [9], 0.607 OD490. The “OD 490 nm” value in the experiment with IL-6R-Fc 항원 [10] was determined as 0.468 OD490; with IL-6R-Fc 항원 [11], 0.451 OD490; in the experiment with IL-6R-Fc 항원 [12] it was 0.462 OD490; in the experiment with IL-6R-Fc 항원 [13], 0.429 OD490; with IL-6R-Fc 항원 [14] it was 0.476 OD490; with IL-6R-Fc 항원 [15] it was 0.5 OD490.

B8: B10/TNFR2 (bispecific antibody)
heavy: not shown
light: DVHSQLVLTQPPSVSGAPGQTVTISCTGPTIGAGYDVHWYQQLPGAAPKLLIYGNLNRPSGVPDRFSGSKSGTSASLAITDLQAEDEADYYCHTYDSSLSGSWVFGGGTKLTVL
notes: also called Anti-IL-6R/TNFR2
With B8, the values for the Kd in the experiment with IL-6R-Fc 항원 [1] and with TNF-α were 4.3 nM and 0.72 nM, respectively.

B9: 항 IL-6R 단클론 항체 F2 (antibody, V domains shown)
VH: QVQLVESGAEVKKPGASVKVSCKASGYTFTNYYMHWVRQAPGQGLEWMGIINPSGGNTGYAQKFQGRVTMTRDMSTSTAYMELSSLRSEDTAVYYCARGLPWGENGLDVWGQGTTVTVSS
VL: SQLVLTQPSSVSGAPGQTVTISCTGSSSNIGAGYDVHWYQQLPGTAPKVLIYGDSDRPSGVPDRFSGSKSATSASLAITGLQAEDEADYYCQSYDSSLSAYVFGTGTKVTVL
For the molecule B9, the Kd in the experiment with IL-6R-Fc 항원 [18] and in the experiment with IL-6R-Fc 항원 [3] was 0.35 nM each time. Further, the “OD 490 nm” value with IL-6R-Fc 항원 [4] was determined as 2.89 OD490; in the experiment with IL-6R-Fc 항원 [5], 2.99 OD490; with IL-6R-Fc 항원 [6], 2.92 OD490; in the experiment with IL-6R-Fc 항원 [7], 2.71 OD490; with IL-6R-Fc 항원 [8] it was 2.72 OD490; in the experiment with IL-6R-Fc 항원 [9], 2.43 OD490. Also, the “OD 490 nm” value is 0.535 OD490 with IL-6R-Fc 항원 [10]; 0.584 OD490 with IL-6R-Fc 항원 [11]; 0.743 OD490 with IL-6R-Fc 항원 [12]; 1.01 OD490 in the experiment with IL-6R-Fc 항원 [13]; 1.41 OD490 with IL-6R-Fc 항원 [14]; 1.9 OD490 in the experiment with IL-6R-Fc 항원 [15].

B10: 모노 파아지 클론 F2 (scFv, V domains shown)
VH: QVQLVESGAEVKKPGASVKVSCKASGYTFTNYYMHWVRQAPGQGLEWMGIINPSGGNTGYAQKFQGRVTMTRDMSTSTAYMELSSLRSEDTAVYYCARGLPWGENGLDVWGQGTTVTVSS
VL: SQLVLTQPSSVSGAPGQTVTISCTGSSSNIGAGYDVHWYQQLPGTAPKVLIYGDSDRPSGVPDRFSGSKSATSASLAITGLQAEDEADYYCQSYDSSLSAYVFGTGTKVTVL
notes: also called F02
As for B10, the “OD 490 nm (a-myc)” value with a-Myc is 0.287 OD490.

For the origin of these results see patent KR20130126543A (dated 2013).
